These results are taken from patent publication US20260176331A1.

As usually defined, the Kd is the constant that tells how readily two partners part at equilibrium. The low end stands for higher affinity, the high end for lower affinity.

One assay has as its target Hu FcgRIIA_R167 (human) (UniProt P12318). The assay can be described thus: kinetics, antibody captured on protein A/G chip, FcγR injected as analyte.
A further assay has as its target Hu FcγRIIβ (human) (UniProt P31994). The description is as above.
Assay [1] deals with human FcγRIIβ on CHOK1 cells (human) (UniProt P31994). The assay can be described thus: ratio of flow cytometry EC50s, reference FcγRIIα (R131) on CHOK1 cells. On the technique in general: Flow cytometry measures light scatter and fluorescence of single cells or particles in a stream.

Where only a bound is given, the exact number is not on record here.

UniProt P12318, sequence (P12318 36-218 H167R limits assumed): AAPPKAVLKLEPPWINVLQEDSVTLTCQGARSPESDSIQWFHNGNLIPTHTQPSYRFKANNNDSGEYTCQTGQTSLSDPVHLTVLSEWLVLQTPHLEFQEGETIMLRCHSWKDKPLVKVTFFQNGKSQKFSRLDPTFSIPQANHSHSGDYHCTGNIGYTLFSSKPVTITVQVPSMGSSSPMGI

For IgG1 P238D (antibody), in the assay with Hu FcgRIIA_R167 (human), the Fold (KD(IgG WT)/KD(variants)) was under 0.3 fold and the equilibrium dissociation constant (Kd) was over 5 µM. For the same substance, the Fold (KD(IgG WT)/KD(variants)) in the assay with Hu FcγRIIβ (human) was determined as 3.18 fold. Further, the IIa/IIb (ratio of EC50) in assay [1] is 77.8.
